Measurements: IntAct's records for PubMed 17272281

B1: S-M checkpoint control protein rad4 (Schizosaccharomyces pombe (strain ATCC 38366 / 972)), P32372 (parent)
chain: MGSSKPLKGFVICCTSIDLKQRTEISTKATKLGAAYRSDFTKDVTHLIAGDFDTPKYKFAAKSRPDIKIMSSEWIPVLYESWVQGEDLDDGLLVDKHFLPTLFKCRVCLTNIGQPERSRIENYVLKHGGTFCPDLTRDVTHLIAGTSSGRKYEYALKWKINVVCVEWLWQSIQRNAVLEPQYFQLDMPAEKIGLGAYVRLDPNTTEAKSYSENQKISKNKEKSGQSLAALAEEADLEPVIMKRGKKRDRSILWEELNNGKFEFSSRSEENSVLLDDFTPETVQPLEENELDTELNIENEAKLFKNLTFYLYEFPNTKVSRLHKCLSDNGGQISEFLSSTIDFVVIPHYFPVDELPIFSFPTVNEWWIERCLYYKKIFGIDEHALAKPFFRPSLVPYFNGLSIHLTGFKGEELSHLKKALTILGAVVHEFLGVQRSILLVNTNEPFSMKTRFKIQHATEWNVRVVGVAWLWNIIQSGKFIDQVSPWAIDKKENQEIKKFTNQNNMVFPTSDRDTRLQNSLAQQPIGHSTPHNSPSLLSVKKRQNNHIRSNTLIQLNSNSKDSTIFPRRSVTVPGDKIDTVWKSSVTKPETPTSPQEHVSYIDPDAQREKHKLYAQLTSNVDAIPPANDLQNQENGLLLITESHRKLRRR
partner: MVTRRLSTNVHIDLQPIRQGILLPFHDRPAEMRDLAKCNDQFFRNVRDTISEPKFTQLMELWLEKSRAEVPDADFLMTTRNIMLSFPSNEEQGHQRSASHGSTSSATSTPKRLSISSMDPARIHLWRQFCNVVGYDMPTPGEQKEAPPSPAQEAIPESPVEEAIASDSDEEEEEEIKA

Variants of: B1
Details: with yq61_schpo yq61, O94733

effect of a mutation on the interaction	Variant
decreasing interaction	S171N
